The results in this text go back to US20210388107A1.

Assay [1] has as its target cynomolgus monkey SIRPα expressed on ExpiCHO-S cells (cynomolgus monkey). Nature of the assay: flow cytometry, ExpiCHO-S cells. A general note: In flow cytometry, cells or beads pass a laser one at a time.
Assay [2] has as its target human SIRPαBIT expressed on cells (human) (UniProt P78324). Nature of the assay: flow cytometry, ExpiCHO-S cells.
Assay [3] has as its target human SIRPα1 expressed on cells (human) (UniProt P78324). Nature of the assay: flow cytometry, ExpiCHO-S cells.
In assay [4] the target is cynomolgus monkey SIRPα, extracellular domain, Avi-FXa-Fc tag (cynomolgus monkey). Nature of the assay: SPR, captured biotinylated antigen. Background: Surface plasmon resonance follows binding to a sensor surface in real time, without labels.
Assay [5] deals with human SIRPβ1v1, extracellular domain, Avi-FXa-Fc tag (human). Nature of the assay: SPR, captured biotinylated antigen.
Assay [6] concerns the target human SIRPαBIT, extracellular domain 1-370, Avi-FXa-Fc tag (human). Nature of the assay: SPR, captured biotinylated antigen.
Assay [7] addresses human SIRPγ, extracellular domain, Avi-FXa-Fc tag (human). Nature of the assay: SPR, captured biotinylated antigen.
The target of assay [8] is human SIRPα1 extracellular domain 1-370, Avi-FXa-Fc tag (human). Nature of the assay: SPR, captured biotinylated antigen.
Assay [9] concerns the target human SIRPβ1v2, extracellular domain, Avi-FXa-Fc tag (human). Nature of the assay: SPR, captured biotinylated antigen.
Assay [10] has as its target human SIRPβ1v2, AVI-tagged, biotinylated, monomeric form (human) (UniProt Q5TFQ8). Nature of the assay: SPR, captured monomeric antigen.
Assay [11] has as its target human SIRPβ1v1, AVI-tagged, biotinylated, monomeric form (human) (UniProt O00241). Nature of the assay: SPR, captured monomeric antigen.
In assay [12] the target is human SIRPαBIT expressed on cells (human) (UniProt P78324). Nature of the assay: flow cytometry, U937 cells.

The EC50 is the midpoint of the concentration-response curve. In general, Kd refers to the constant that tells how readily two partners part at equilibrium.

Sequence of human SIRPαBIT expressed on cells (human) (P78324 31-504 limits assumed): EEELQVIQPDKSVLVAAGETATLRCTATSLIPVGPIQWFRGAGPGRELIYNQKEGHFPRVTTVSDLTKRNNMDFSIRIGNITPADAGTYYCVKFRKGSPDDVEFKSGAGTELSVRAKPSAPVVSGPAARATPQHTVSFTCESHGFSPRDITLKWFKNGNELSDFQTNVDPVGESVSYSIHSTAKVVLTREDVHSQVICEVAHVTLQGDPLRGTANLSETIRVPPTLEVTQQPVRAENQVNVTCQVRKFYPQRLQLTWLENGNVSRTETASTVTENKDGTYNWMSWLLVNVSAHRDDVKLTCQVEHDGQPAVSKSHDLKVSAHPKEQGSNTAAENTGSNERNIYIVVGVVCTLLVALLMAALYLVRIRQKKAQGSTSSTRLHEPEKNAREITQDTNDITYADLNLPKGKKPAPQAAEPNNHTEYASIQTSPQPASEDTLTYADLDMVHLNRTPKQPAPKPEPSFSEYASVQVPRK
Sequence of human SIRPα1 extracellular domain 1-370, Avi-FXa-Fc tag (human) (chain, as listed by the source limits assumed): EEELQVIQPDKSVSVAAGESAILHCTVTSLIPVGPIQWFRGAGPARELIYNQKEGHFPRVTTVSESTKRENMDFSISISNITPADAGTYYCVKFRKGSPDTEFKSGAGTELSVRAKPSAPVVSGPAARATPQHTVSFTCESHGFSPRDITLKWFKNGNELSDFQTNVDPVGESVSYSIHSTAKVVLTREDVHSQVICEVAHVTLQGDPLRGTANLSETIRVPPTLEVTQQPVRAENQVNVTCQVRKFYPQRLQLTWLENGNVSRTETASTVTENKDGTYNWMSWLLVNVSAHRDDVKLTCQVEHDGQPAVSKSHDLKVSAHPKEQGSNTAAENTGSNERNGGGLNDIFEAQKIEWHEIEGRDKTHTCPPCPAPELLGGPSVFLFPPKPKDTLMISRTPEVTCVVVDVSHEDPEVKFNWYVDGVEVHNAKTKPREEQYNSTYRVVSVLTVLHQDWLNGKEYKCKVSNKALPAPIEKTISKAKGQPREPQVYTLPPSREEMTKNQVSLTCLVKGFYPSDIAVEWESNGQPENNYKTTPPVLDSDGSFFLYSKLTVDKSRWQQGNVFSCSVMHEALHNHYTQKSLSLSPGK
Sequence of human SIRPαBIT, extracellular domain 1-370, Avi-FXa-Fc tag (human) (chain, as listed by the source limits assumed): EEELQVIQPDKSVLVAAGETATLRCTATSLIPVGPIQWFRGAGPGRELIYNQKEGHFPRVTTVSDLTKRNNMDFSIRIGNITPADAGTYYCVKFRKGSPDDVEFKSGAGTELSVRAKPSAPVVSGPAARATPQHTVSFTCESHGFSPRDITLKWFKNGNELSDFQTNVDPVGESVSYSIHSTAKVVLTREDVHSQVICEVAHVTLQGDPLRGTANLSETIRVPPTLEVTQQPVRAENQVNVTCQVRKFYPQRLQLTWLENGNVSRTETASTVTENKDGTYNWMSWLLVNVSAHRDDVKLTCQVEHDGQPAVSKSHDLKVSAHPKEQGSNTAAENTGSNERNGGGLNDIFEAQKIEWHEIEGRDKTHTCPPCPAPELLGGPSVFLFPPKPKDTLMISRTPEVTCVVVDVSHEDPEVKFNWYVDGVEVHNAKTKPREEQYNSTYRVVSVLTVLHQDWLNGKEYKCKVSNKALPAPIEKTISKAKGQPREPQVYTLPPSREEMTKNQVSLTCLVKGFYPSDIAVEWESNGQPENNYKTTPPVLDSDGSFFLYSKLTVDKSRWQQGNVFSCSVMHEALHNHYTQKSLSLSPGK
Sequence of cynomolgus monkey SIRPα, extracellular domain, Avi-FXa-Fc tag (cynomolgus monkey) (chain, as listed by the source limits assumed): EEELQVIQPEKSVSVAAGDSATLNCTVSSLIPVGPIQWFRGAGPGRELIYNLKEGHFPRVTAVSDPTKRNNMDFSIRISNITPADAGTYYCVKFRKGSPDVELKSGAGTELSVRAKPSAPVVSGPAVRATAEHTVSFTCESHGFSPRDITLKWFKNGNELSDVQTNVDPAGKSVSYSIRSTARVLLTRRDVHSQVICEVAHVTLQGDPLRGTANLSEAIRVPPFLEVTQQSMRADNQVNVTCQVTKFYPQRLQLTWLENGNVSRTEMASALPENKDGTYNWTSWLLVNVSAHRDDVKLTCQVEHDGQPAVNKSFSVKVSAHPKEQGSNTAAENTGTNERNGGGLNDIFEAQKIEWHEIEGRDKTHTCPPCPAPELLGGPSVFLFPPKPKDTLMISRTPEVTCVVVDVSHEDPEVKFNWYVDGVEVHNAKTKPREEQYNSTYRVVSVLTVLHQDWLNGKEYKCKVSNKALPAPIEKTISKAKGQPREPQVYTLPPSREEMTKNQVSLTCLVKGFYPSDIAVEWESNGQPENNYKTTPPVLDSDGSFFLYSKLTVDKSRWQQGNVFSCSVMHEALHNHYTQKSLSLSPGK
Sequence of human SIRPα1 expressed on cells (human) (P78324 other isoform, or with tags, fused parts or gaps limits assumed): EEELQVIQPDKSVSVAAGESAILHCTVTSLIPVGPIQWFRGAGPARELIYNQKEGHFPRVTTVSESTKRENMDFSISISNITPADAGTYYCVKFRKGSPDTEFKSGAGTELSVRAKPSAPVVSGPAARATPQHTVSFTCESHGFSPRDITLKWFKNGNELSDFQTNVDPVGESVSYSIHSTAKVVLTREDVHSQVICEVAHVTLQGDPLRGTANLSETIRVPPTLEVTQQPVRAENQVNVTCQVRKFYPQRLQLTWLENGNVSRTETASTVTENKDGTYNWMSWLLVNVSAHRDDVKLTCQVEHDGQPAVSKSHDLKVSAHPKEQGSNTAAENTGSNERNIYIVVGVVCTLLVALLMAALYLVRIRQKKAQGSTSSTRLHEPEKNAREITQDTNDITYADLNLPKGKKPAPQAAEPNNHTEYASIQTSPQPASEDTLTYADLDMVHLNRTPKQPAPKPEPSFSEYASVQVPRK
Sequence of human SIRPβ1v1, AVI-tagged, biotinylated, monomeric form (human) (O00241 30-371): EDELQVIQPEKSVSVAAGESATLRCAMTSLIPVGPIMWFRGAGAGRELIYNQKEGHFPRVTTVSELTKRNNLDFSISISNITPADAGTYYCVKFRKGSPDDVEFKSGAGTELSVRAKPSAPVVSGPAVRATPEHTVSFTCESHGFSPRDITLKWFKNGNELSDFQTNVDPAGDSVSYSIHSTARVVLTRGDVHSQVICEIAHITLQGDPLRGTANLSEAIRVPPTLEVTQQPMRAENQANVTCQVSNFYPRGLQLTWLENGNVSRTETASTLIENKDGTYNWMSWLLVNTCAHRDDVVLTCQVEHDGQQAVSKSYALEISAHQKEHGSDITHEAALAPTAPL
Sequence of human SIRPβ1v1, extracellular domain, Avi-FXa-Fc tag (human) (chain, as listed by the source limits assumed): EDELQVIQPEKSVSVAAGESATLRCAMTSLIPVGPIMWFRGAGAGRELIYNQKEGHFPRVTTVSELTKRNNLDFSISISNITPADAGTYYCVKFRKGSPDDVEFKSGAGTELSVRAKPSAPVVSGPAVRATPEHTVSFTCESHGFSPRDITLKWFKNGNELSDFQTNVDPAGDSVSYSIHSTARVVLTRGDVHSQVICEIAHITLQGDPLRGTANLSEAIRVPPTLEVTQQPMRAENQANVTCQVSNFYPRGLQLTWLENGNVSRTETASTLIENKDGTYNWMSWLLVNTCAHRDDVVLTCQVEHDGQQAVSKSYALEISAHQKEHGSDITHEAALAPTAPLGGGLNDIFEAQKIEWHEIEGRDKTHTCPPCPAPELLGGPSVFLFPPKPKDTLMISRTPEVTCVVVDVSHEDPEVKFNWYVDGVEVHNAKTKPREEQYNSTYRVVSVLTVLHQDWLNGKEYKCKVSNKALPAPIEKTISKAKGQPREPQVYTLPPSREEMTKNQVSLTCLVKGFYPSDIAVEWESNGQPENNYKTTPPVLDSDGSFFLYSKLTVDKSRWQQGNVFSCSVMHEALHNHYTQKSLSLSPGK
Sequence of human SIRPβ1v2, extracellular domain, Avi-FXa-Fc tag (human) (chain, as listed by the source limits assumed): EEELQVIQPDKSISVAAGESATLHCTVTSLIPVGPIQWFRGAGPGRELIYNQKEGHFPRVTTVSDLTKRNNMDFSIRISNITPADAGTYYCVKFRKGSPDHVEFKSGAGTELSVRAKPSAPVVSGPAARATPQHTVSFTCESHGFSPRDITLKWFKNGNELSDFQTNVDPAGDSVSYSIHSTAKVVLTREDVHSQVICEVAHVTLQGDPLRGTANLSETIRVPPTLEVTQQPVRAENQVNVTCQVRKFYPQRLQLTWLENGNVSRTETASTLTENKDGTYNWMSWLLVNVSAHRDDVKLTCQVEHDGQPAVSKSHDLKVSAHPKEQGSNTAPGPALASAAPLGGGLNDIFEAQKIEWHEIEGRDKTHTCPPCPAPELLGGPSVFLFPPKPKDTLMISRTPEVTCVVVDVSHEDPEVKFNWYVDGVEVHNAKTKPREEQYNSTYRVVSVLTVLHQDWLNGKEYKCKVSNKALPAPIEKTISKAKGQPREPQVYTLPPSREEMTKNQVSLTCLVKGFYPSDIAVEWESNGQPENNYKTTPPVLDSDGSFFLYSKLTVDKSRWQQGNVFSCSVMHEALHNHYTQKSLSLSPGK
Sequence of human SIRPβ1v2, AVI-tagged, biotinylated, monomeric form (human) (Q5TFQ8 30-371): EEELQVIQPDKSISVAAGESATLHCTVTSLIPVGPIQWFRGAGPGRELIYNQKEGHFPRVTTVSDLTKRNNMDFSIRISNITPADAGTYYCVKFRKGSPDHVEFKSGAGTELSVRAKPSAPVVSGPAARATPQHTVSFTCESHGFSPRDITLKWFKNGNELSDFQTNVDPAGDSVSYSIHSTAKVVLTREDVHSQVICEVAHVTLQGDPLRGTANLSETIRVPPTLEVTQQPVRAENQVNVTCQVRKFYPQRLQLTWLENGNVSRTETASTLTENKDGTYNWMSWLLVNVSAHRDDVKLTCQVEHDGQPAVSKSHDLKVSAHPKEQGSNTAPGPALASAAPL

On to “SE5A5 (mouse IgG1κ, Biolegend, purified anti-human CD172a/b) (antibody)”, for which the EC50 in assay [1] worked out at 0.05 µg/mL; in [2], 0.62 µg/mL; in assay [3], 0.09 µg/mL; in assay [12], 1.48 µg/mL. The Kd in assay [4] worked out at 1.8 nM; in [5], 0.0382 nM; in assay [6], 0.798 nM; in assay [7], 2.66 nM; in [8], 0.0154 nM; in assay [9] it was 0.287 nM. Besides, the Kd in assay [10] was found to be 0.358 nM; in assay [11] it was 0.0631 nM.
